Assay [1] has as its target T1, human serum albumin (human, UniProt P02768 25-609).
T1 construct: also called HSA
As to the kind of experiment: SPR (Biacore 8K+, single cycle kinetics), HSA on CM5 chip. On the technique in general: SPR reads the build-up and loss of mass on a sensor chip optically.

Assay [2] has as its target T1, human serum albumin. The assay can be described thus: SPR (Biacore 8K+, single cycle kinetics), HSA on CM5 chip, HBS-EP+ pH 7.4.
Assay [3] concerns the target T1, human serum albumin. The assay can be described thus: SPR (Biacore 8K+, single cycle kinetics), HSA on CM5 chip, citrate buffer pH 5.5.
Assay [4] deals with T1, human serum albumin. The assay can be described thus: SPR (Biacore), VHH clone, pH 5.5.
Assay [5] addresses T1, human serum albumin. As to the kind of experiment: SPR (Biacore), VHH clone, pH 7.4.
Assay [6] addresses T2, isolated DII of serum albumin (UniProt P02768 211-403, limits assumed).
T2 construct: domain: DII
The assay can be described thus: DII binder column of the clone screening.

In assay [7] the target is T1, human serum albumin. As to the kind of experiment: SPR (Biacore), off-rate pH 7.4 over pH 5.5.
Assay [8] deals with T3, cynomolgus monkey serum albumin (cynomolgus monkey, UniProt A2V9Z4 25-608).
T3 construct: also called cyno albumin; CSA
The assay can be described thus: species reactivity, screening by ELISA and Biacore.

The next assay deals with T4, mouse serum albumin (mouse, UniProt P07724 25-608).
T4 construct: also called MSA; mouse albumin
The assay can be described thus: species reactivity, screening by ELISA and Biacore. For orientation: In an ELISA, binding on a coated surface is turned into a signal by an enzyme label.

Assay [9] concerns the target T1, human serum albumin. As to the kind of experiment: SPR (Biacore 3000), HSA on chip, Fc-ABDEG fusion, pH 5.5.
In assay [10] the target is T1, human serum albumin. The assay can be described thus: SPR (Biacore 3000), HSA on chip, Fc-ABDEG fusion, pH 7.4.
The target in assay [11] is T1, human serum albumin. As to the kind of experiment: SPR (Biacore 3000), HSA on chip, Fc-ABDEG fusion, pH 5.5. This is another data set of the same source.
The target in assay [12] is T1, human serum albumin. As to the kind of experiment: SPR (Biacore 3000), HSA on chip, Fc-ABDEG fusion, pH 7.4. The source holds these as a separate data set.
Assay [13] has as its target T1, human serum albumin. The assay can be described thus: SPR (Biacore 3000), HSA on chip, Fc-ABDEG fusion, ratio of R0.
For assay [14], the target named is T1, human serum albumin. The description is as above. This is another data set of the same source.
For assay [15], the target named is T3, cynomolgus monkey serum albumin. As to the kind of experiment: SPR (Biacore 3000), cyno albumin on chip, Fc-ABDEG fusion, pH 5.5.
Assay [16] shares this target. The assay can be described thus: SPR (Biacore 3000), cyno albumin on chip, Fc-ABDEG fusion, pH 7.4.
Assay [17] has the same target. The assay can be described thus: SPR (Biacore 3000), cyno albumin on chip, Fc-ABDEG fusion, ratio of R0.

Like-named read-outs stand apart in the source and are kept apart here.

The Kd is the equilibrium constant for the complex coming apart. For orientation: koff means the rate constant with which the complex falls apart.

Take “Motavizumab-Fab fragment with Alb23 fused C-terminally to the light chain using a 20GS linker”: the KD ratio (pH 7.4 / pH 5.5) in the assay with human serum albumin [1] was determined as 5.28. Further, the Kd with human serum albumin [2] came out at 65 nM; in the assay with human serum albumin [3], 12.3 nM.

B1: Motavizumab-Fab fragment fused with 2H11 C-terminally to the light chain using a 20GS linker (protein, part only; not given: motavizumab Fab and linker, not shown: another chain or arm of the molecule; small tags and cut ends)
VHH: ELQVVESGGGLVQAGGSLRLSCAASGRTFRSNTMGWFRQAPGKEREFVAAITWSGGTTYYADSVKGRFAISGDNAKNTVYLQMNSLKPEDTAVYYCAAEGPKWEPWNGIYHPADFGSWGQGTQVTVSS
In the case of B1, the KD ratio (pH 7.4 / pH 5.5) with human serum albumin [1] came out at 92.6. For the same molecule, the results for the Kd with human serum albumin [2] and with human serum albumin [3] were 264 nM and 2.85 nM, respectively.

B2: 12G03 (VHH)
VHH: QVQLVESGGGLVQAGGSLRLSCAASERAFSHSNMAWFRQAPGKEREFVAHIHWRGSTTYLDSVKGRFTISRDNAKNTVYLQMNGLRLEDTAVYYCAADSARRILVTVSTSYDYWGQGTQVTVSS
In turn, B2 came in with a Kd with human serum albumin [4] of 8.14 nM. Moreover, the koff in the assay with human serum albumin [4] was 0.00126 s⁻¹; in the assay with human serum albumin [5] it was 0.00522 s⁻¹. Further, the binding result in assay [6] was “no binding”; in assay [8], “binds”; in the assay with mouse serum albumin it was “binds”. Moreover, in the assay with human serum albumin [7], the “Ratio Kd” value was determined as 4.1.

B3: 11C03 parental fused at the C-terminus of Fc-ABDEG (Fc fusion, not shown: a dimerising Fc or GST; small tags and cut ends)
chain: QLQVVESGGGLVQAGGSLRLSCAASERTFVAYPMGWFRQAPEKEREFVAGISWFAGATTDYADSVEGRFTISRDNAKNTAYLQMNNLKPEDTAVYYCAISHQLPGGRPGRDMDSYSYWGHGTQVTVSS
With B3, the entries for the “R0 pH 5.5” value (in the assay with human serum albumin [9]; with human serum albumin [11]; in assay [15]) were 177 RU, 229 RU and 220 RU, respectively. For the same molecule, the “R0 pH 7.4” value with human serum albumin [10] turned out to be 42.2 RU; with human serum albumin [12] it was 57 RU; in [16], 33 RU. Also, the results for the “R0 5.5/7.4” value (with human serum albumin [13]; with human serum albumin [14]; in assay [17]) were 4.22, 4 and 6.7, respectively.

B4: 11C03-v6 fused at the C-terminus of Fc-ABDEG (Fc fusion, not shown: a dimerising Fc or GST; small tags and cut ends)
chain: QLQVVESGGGLVQAGGSLRLSCAASERTFVAYPMGWFRQAPEKEREFVAGISWFAGATTDYADSVEGRFTISRDNAKNTAYLQMNNLKPEDTAVYYCAISHQLPAGRPGRDMDSYSYWGHGTQVTVSS
As to B4, the “R0 pH 5.5” value with human serum albumin [9] is 39.3 RU. For the same molecule, the “R0 pH 7.4” value with human serum albumin [10] worked out at 12.1 RU. Further, the “R0 5.5/7.4” value with human serum albumin [13] stood at 3.26.

B5: 9F02 (VHH)
VHH: EVQLVESGGGLVQAGGSLRLSCTASRRAFIGYAMGWFRQAPGKEREFVAAISWFAGDTTDYADSVKGRFTISRDNAKNTVYLQMNGLKPEDTAVYVCAASSARPMSGRSDEYHYWGQGTQVTVSS
On to B5, for which the affinity in the assay with human serum albumin [4], expressed as Kd, was 0.575 nM. Also, the values for the koff in the assay with human serum albumin [4] and with human serum albumin [5] were 7.8e-05 s⁻¹ and 0.00013 s⁻¹, respectively. In the assay with human serum albumin [7], the “Ratio Kd” value is 1.6. The binding result (in assay [8]; with mouse serum albumin) was “binds” throughout.

B6: 9E10 (VHH)
VHH: QLQVVESGGGLVQAGGSLRLSCTTSGRAFIGYAMGWFRQAPGKEREFVAAISWFAGDTTDYANSVKGRFTISRDNAKNTVYLQMNSLKPEDTAVYVCAASSARPLSSRSDEYHYWGQGTQVTVSS
As to B6, the Kd in the assay with human serum albumin [4] amounted to 15.4 nM. Besides, the koff with human serum albumin [4] came out at 0.00246 s⁻¹; in the assay with human serum albumin [5], 0.00412 s⁻¹. Besides, the “Ratio Kd” value with human serum albumin [7] worked out at 1.7. Besides, the binding result (in [8]; with mouse serum albumin) was “binds” in each case.

These data come from patent US20250223342A1 (ARGENX, published 2025).
